In patent publication US20220259294A1 (published 2022):

B1: TRL1070 (antibody, V domains shown)
VH: QVQLVQSGGTLVQPGGSLRLSCAASGFTFSYYSMSWVRQAPGKGLEWVANIKHDGTERNYVDSVKGRFTISRDNSEKSLYLQMNSLRAEDTAVYYCAKYYYGAGTNYPLKYWGQGTRVTVSS
VL: DILMTQSPSSLSASVGDRVTITCRASQGIRNDLGWYQQKPGKAPKLLIYAASSLQSGVPSRFSGSGSGTDFTLTISSLQPEDFATYYCLQDYNYPLTFGGGTKVEIKR
B2: TRL1087 (antibody, V domains shown)
VH: QVQLLESGPGLVRPSDTLSLTCTFSADLSTNAYWTWIRQPPGKGLEWIGYMSHSGGRDYNPSFNRRVTISVDTSKNQVFLRLTSVTSADTAVYFCVREVGSYYDYWGQGILVTVSS
VL: DIEMTQSPSSLSASVGDRITITCRASQGISTWLAWYQQKPGKAPKSLIFSTSSLHSGVPSKFSGSGSGTDFTLTITNLQPEDFATYYCQQKWETPYSFGQGTKLDMIR
B3: TRL1215 (antibody, V domains shown)
VH: QVQLVESGTEVKNPGASVKVSCTASGYKFDEYGVSWVRQSPGQGLEWMGWISVYNGKTNYSQNFQGRLTLTTETSTDTAYMELTSLRPDDTAVYYCATDKNWFDPWGPGTLVTVSS
VL: DIVMTQSPSASGSPGQSITISCTGTNTDYNYVSWYQHHPGKAPKVIIYDVKKRPSGVPSRFSGSRSGNTATLTVSGLQTEDEADYYCVSYADNNHYVFGSGTKVTVL
B4: TRL1216 (antibody, V domains shown)
VH: QVQLVESGGGVVQPGGSLRVSCAASAFSFRDYGIHWVRQAPGKGLQWVAVISHDGGKKFYADSVRGRFTISRDNSENTLYLQMNSLRSDDTAVYYCARLVASCSGSTCTTQPAAFDIWGPGTLVTVSS
VL: DIMLTQPPSVSVSPGQTARITCSGDALPKKYTYWYQQKSGQAPVLLIYEDRKRPSEIPERFSAFTSWTTATLTITGAQVRDEADYYCYSTDISGDIGVFGGGTKLTVL
B5: TRL1218 (antibody, V domains shown)
VH: QVQLLESGADMVQPGRSLRLSCAASGFNFRTYAMHWVRQAPGKGLEWVAVMSHDGYTKYYSDSVRGQFTISRDNSKNTLYLQMNNLRPDDTAIYYCARGLTGLSVGFDYWGQGTLVTVSS
VL: DIVLTQSASVSGSPGQSITISCTGTSSDVGGYNYVSWYQQHPGKAPKLMIYDVTTRPSGVSDRFSGSKSGNTASLTISGLQAEDEADYYCSSYSSGSTPALFGGGTQLTVL
B6: TRL1230 (antibody, V domains shown)
VH: QVQLVQSGGGLVKPGGSLRLSCGASGFNLSSYSMNWVRQAPGKGLEWVSSISSRSSYIYYADSVQGRFTISRDNAKNSLYLQMNSLRAEDTAIYYCARVSPSTYYYYGMDVWGQGTTVTVSS
VL: DIVLTQPSSVSVSPGQTARITCSGDELPKQYAYWYQQKPGQAPVLVIYKDNERPSGIPERFSGSSSGTTVTLTISGVQAEDEADYYCQSADSSGTYVVFGGGTKLTVL
B7: TRL1232 (antibody, V domains shown)
VH: QVQLVESGAEVKKPGALVKVSCKASGYTFSGYYMHWVRQAPGQGLEWMGWINPKSGGTKYAQKFQGRVTMTRDTSISTAYMELSRLRSDDTAVYFCARGGPSNLERFLERLQPRYSYDDKYAMDVWGQGTTVTVSS
VL: DIVMTQSPGTLSLSPGARATLSCRASQSVSSIYLAWYQQKPGQAPRLLIFGASSRATGIPDRFSGSGSGTDFTLTISRLEPEDFAVYYCQQYGSSPYTFGQGTKLEIKR
B8: TRL1068 (antibody, V domains shown)
VH: QVQLVESGPGLVKPSETLSLTCRVSGDSNRPSYWSWIRQAPGKAMEWIGYVYDSGVTIYNPSLKGRVTISLDTSKTRFSLKLTSVIAADTAVYYCARERFDRTSYKSWWGQGTQVTVSS
VL: DIVLTQAPGTLSLSPGDRATLSCRASQRLGGTSLAWYQHRSGQAPRLILYGTSNRATDTPDRFSGSGSGTDFVLTISSLEPEDFAVYYCQQYGSPPYTFGQGTTLDIK

Target: T1, IHF from Haemophilus influenzae (Hi) (Haemophilus influenzae)
T1 chain: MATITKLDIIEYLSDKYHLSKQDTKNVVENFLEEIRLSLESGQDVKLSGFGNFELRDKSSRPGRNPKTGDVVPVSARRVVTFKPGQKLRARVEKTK
Test: ELISA

Row | Binder | OD
1 | B1 | 0.11 OD
2 | B2 | 0.06 OD
3 | B3 | 1.9 OD
4 | B4 | 0.06 OD
5 | B5 | 0.04 OD
6 | B6 | 0.06 OD
7 | B7 | 0.1 OD

target: T2, IHF from Klebsiella pneumoniae (Kp) (Klebsiella pneumoniae); test: ELISA
T2 construct: Recombinant, His-tagged, made in HEK293 cells; also called IHF (Kp)
T2 sequence (A6TAI1 whole entry, chain 1 of 2): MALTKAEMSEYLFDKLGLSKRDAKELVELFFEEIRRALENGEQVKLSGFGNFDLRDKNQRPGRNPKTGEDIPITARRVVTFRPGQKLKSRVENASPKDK
T2 sequence (A6T704 whole entry, chain 2 of 2, further chain): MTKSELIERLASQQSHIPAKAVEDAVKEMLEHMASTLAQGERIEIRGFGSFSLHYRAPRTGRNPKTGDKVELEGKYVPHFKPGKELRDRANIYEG

Row | Binder | OD
8 | B1 | 0.5 OD
9 | B2 | 0.06 OD
10 | B3 | 1.6 OD
11 | B4 | 0.4 OD
12 | B5 | 0.06 OD
13 | B6 | 0.07 OD
14 | B7 | 0.1 OD

Target: T1, IHF from Haemophilus influenzae (Hi)
Test: ForteBio Octet QK biosensor (BLI), ratio of on and off rates

Row | Binder | Kd
15 | B8 | 0.35 µM

target: T2, IHF from Klebsiella pneumoniae (Kp); test: as above

Row | Binder | Kd
16 | B8 | 0.007 µM
